According to the nanobody polyreactivity screen of Harvey et al. (2022):

Test: yeast display, Sf9 membrane polyspecificity reagent, FACS + sequencing; frameworks hold sequencing errors
Summary of the method: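 Nanobodies came from a synthetic yeast display library in Saccharomyces cerevisiae BJ5465, induced with galactose for 36–48 hours and stained for 1 hour at 4 °C with 10% biotinylated, detergent-solubilized Sf9 membrane reagent. Cells were enriched on streptavidin microbeads and then FACS-sorted, with low and high (top ~1%) gates set on anti-HA fluorescence for expression and streptavidin fluorescence for reagent binding. Each polyreactivity label reflects the gate a clone came from. Genes were amplified by colony PCR, sequenced by MiSeq 2 × 250 and filtered by CDR length.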

Row | Sequence | polyreactivity (PSR sort gate)
1 | QVQLVESGGGLVQAGGSLRLSCAASGFTFGYYTMGWYRQAPGKERELVAAISWSGDSTYYADSVKGRFTISRDNAKNNVYLQMNSLKPEDTAVYYCAAAVYGSWPDYDYWGQGTQVTVSS | low polyreactivity
2 | QVQLVESGGGLVQAGGSLRLSCAASGFTFHNNVMGWYRQAPGKERELVATISKSGGSTYYADSVKGRFTISRDNAKNTVYLQMNSLKPEDTAVYYCAAETPTHDEWGQGTQVTVSS | high polyreactivity
3 | QVQLVESGGGLVQAGGSLRLSCAASGFTFHNYAMGWYRQAPGKEREFVAAITRNTASTYYADSVKGRFTISRDNAKTTVYLQMISLKPEATAVYYCAATDKKHRTAYDSWGQRTQVTVSS | low polyreactivity
4 | QVQLVESGGGLVQAGGSLRLSCAASGFTFHNYAMGWYRQAPGKERELVAAISASGSSTYYADSVKGRFTISRDNAKNTVYLQMNSLKPEDTAVYYCAAVGRYSPYGYWGQGTQVTVSS | high polyreactivity
5 | QVQLVESGGGLVQAGGSLRLSCAASGFTFHQYTMGWYRQAPGKERELVAAISRSGYTNYADSVKGRFTISRDNAKNTVYLQMNSLKPEDTAVYYCNARSTRSRTYQSYDYWGQGTQVTVSS | high polyreactivity
6 | QVQLVESGGGLVQAGGSLRLSCAASGFTFHRNAMGWYRQAPGKERELVAAISTRGGSTAYADSVKGRFTISRDNAKNTVYLQMNSLKPEDTAVYYCAAATSPGIYDYWGQGTQVTVSS | high polyreactivity
7 | QVQLVESGGGLVQAGGSLRLSCAASGFTFHYNAMGWYRQAPGKERELVAAISRSGGITNYADSVKGRFTISRDNAKNTVYLQMNSLKPEDTAVYYCAAYLVVRIRYTQRYDYWGQGTQVTVSS | low polyreactivity
8 | QVQLVESGGGLVQAGGSLRLSCAASGFTFHYYTMGWYRQAPGKERELVASINYSGGRTYYADSVKGRFTISRDNAKNTVYLQMNSLKPEDTAVYYCNARYKSTYYYWGQGTQVTVSS | high polyreactivity
9 | QVQLVESGGGLVQAGGSLRLSCAASGFTFIFNAMGWNRQAPGKERELVATISSGGSTYYADSVKGRFTISRDNAKNTVYLQMNSLKPEDTAVYYCNTDDVGGYDYWGQGTQVTLSS | low polyreactivity
10 | QVQLVESGGGLVQAGGSLRLSCAASGFTFIKYAMGWSRQAPGNEMEFVAAITRSGTSTYYADSVKGRFTISRDNAKNTVYLQMNSLKPEDTAVYYCAATYPRYYSGEFDYWGQGTLVTVSS | high polyreactivity
11 | QVQLVESGGGLVQAGGSLRLSCAASGFTFIKYAMGWYRQATGNEREFVATISWNGGNTYYADSVKGRFTISRDNAKNTVYLQMNSLKPEDTAVYYCAARVKYRTRGGTVVSYDYWGQGTQVTVSS | high polyreactivity
12 | QVQLVESGGGLVQAGGSLRLSCAASGFTFIRNAMGWYRQAPGKERELVAAISRSGGSTYYADSVKGRFTISRDNAKKTVYLQMNSQKPEDTAVYYCAVTLYLKWQGGAYDYWGQGTQVTVSS | low polyreactivity
13 | QVQLVESGGGLVQAGGSLRLSCAASGFTFIRYAMGWYRQAPGKERELVATITRRGGSTYYADSVKGRFTISRDNAKNTVYLQMNSLKPEDTAVYYCNRDYVTYGKYYYWGQGTQVTVSS | high polyreactivity
14 | QVQLVESGGGLVQAGGSLRLSCAASGFTFIRYAMGWYRQAPGKEREVVAAISWRVGITYYADSVKGRFTISRDNAKNTVYLQMNSQKPEDTAVYYCARDYRNPPFAYEYWGQGTQVTVSS | low polyreactivity
15 | QVQLVESGGGLVQAGGSLRLSCAASGFTFIRYSMGWYRQAPGKERELVATISRSGGRTYYADSVKGRFTISRDNAKNTVYLQMNSLKPEDTAVYYCNAEAIVLNGGGYWGQGTQVTVSS | high polyreactivity
16 | QVQLVESGGGLVQAGGSLRLSCAASGFTFISNAMGWYRQAPGKERELVAAISSSGGRTYYADSVKGRFTISRDNAKNTVYLQMNRLKPEDTAVYYCYADRSLLYSRKIEYDYWGQGTQVTVSS | low polyreactivity
17 | QVQLVESGGGLVQAGGSLRLSCAASGFTFIYYAMGWYRQAPGKERELVAAISASGGSTYYADSVKGRFTISRDNAKNTVYLQMNSLKPEDTAVYYCAADALIYYKGSPDYYWGQGTQVTVSS | high polyreactivity
18 | QVQLVESGGGLVQAGGSLRLSCAASGFTFKCYTMGWYRQAPGKERELVAGISRRGGSTYYADSVKGRFTISRDNAKNTVYLQMNSLKPEDTAVYDCAADSQLTKFYYWGQGSQVTVSS | high polyreactivity
19 | QVQLVESGGGLVQAGGSLRLSCAASGFTFKGNAMGWYRQAPGTERELVATITQSAGSTYYADSVKGRFTISRDNAKNTVYLEMNSLKPEDTAVYYCNADPITLYYYSWYNYWGQGTQVTVSS | low polyreactivity
20 | QVQLVESGGGLVQAGGSLRLSCAASGFTFKNNAMGWYRQAPGKEREFVASISSGSTNYADSVKGRFTISRDNAKYTVYLQMNSLKPEDTEVYYCIRAPYRYSEPDYRSDFWGQGTQVTVSS | low polyreactivity
21 | QVQLVESGGGLVQAGGSLRLSCAASGFTFKQYGMGWYRQAPGKERELVASISYRGGSTHYADSVKGRFTISRDNAKKTVYLQMNSLKPEDTAVYYCAARVTSRTSIKGDYWGQGTQVTVSS | low polyreactivity
